T1: HTRA4, P83105
T1 sequence (P83105 378-476, limits assumed, looked up): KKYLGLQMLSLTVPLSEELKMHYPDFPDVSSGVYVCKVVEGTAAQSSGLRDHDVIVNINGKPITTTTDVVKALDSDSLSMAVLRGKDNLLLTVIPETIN

T2: SNTG2, Q9NY99
T2 sequence (Q9NY99 68-166, limits assumed, looked up): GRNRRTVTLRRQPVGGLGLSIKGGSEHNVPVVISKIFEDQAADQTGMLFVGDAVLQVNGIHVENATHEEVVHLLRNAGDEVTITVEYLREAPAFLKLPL

T3: SNTA1, Q13424
T3 sequence (Q13424 82-180, limits assumed, looked up): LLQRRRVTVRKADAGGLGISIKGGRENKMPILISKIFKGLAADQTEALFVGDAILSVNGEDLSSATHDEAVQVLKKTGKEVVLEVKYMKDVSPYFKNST

T4: DFNB31_2, Q9P202
T4 sequence (Q9P202 274-371, limits assumed, looked up): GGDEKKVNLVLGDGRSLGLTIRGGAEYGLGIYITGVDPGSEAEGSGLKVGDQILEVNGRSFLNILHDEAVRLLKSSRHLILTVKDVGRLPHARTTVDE

T5: DVL3, Q92997
T5 sequence (Q92997 244-331, limits assumed, looked up): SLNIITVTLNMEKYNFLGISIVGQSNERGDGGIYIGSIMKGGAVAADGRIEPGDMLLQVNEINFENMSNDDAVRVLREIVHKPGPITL

T6: NHERF3_1, Q5T2W1
T6 sequence (Q5T2W1 4-100, limits assumed, looked up): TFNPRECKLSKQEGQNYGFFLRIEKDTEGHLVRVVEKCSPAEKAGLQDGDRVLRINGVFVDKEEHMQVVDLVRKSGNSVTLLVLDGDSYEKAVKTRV

T7: DFNB31_1, Q9P202
T7 sequence (Q9P202 135-233, limits assumed, looked up): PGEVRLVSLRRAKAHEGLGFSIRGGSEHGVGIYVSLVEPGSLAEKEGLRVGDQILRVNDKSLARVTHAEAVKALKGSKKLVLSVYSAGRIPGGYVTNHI

T8: MPDZ_10, O75970
T8 sequence (O75970 1624-1722, limits assumed, looked up): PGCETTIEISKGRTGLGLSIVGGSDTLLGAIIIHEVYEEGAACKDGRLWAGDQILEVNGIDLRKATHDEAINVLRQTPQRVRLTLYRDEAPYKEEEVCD

T9: SNTG1, Q9NSN8
T9 sequence (Q9NSN8 52-150, limits assumed, looked up): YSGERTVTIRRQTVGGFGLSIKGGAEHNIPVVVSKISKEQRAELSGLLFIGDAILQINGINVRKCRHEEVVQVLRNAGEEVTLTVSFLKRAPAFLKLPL

T10: TIAM2, Q8IVF5
T10 sequence (Q8IVF5 885-986, limits assumed, looked up): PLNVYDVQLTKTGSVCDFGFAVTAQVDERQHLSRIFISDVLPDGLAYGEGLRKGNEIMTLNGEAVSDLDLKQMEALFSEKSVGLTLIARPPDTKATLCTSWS

T11: LIN7B, Q9HAP6
T11 sequence (Q9HAP6 88-185, limits assumed, looked up): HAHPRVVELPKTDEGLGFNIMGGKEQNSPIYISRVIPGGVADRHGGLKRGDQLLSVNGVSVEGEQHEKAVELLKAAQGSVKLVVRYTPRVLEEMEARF

T12: DLG3_3, Q92796
T12 sequence (Q92796 374-475, limits assumed, looked up): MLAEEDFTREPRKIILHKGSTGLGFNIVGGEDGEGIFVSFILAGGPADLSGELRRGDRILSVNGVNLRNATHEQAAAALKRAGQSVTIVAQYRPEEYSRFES

T13: RAPGEF6, Q8TEU7
T13 sequence (Q8TEU7 525-625, limits assumed, looked up): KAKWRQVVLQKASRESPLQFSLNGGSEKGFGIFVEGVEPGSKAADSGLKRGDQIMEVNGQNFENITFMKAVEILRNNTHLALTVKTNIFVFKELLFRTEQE

B1: GJC1, P36383 (peptide)
chain: SGDGKTSVWI
B2: GRID2, O43424 (peptide)
chain: GNDPDRGTSI
B3: JAM1, Q9Y624 (peptide)
chain: EFKQTSSFLV
B4: SLCO2B1, O94956 (peptide)
chain: PGKKPEDSRV
B5: SLC2A3, P11169 (peptide)
chain: EPAKETTTNV
B6: JAM2, P57087 (peptide)
chain: DFKHTKSFII

Molecular target: NOS1, P29475
Assay: holdup assay
Design: key: below the threshold = too weak to quantify, mostly under pKd 3.1 to 4
Conditions: plain residues with an end cap or a label only (N-terminal biotin on a linker: ado-ado)

Sequence of NOS1, P29475 (P29475 9-101): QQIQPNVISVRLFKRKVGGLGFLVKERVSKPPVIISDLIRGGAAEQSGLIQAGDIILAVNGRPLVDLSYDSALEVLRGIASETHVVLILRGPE

pKd | Binder
4.1 | B1
3.75 | B2
3.97 | B3
below the threshold | B4
below the threshold | B5
3.75 | B6

Molecular target: T1, HTRA4, P83105
Assay: holdup assay
Design: key: below the threshold = too weak to quantify, mostly under pKd 3.1 to 4
Conditions: plain residues with an end cap or a label only (N-terminal biotin on a linker: ado-ado)

pKd | Binder
4.64 | B1
below the threshold | B2
4.05 | B3
below the threshold | B4
below the threshold | B5
3.79 | B6

Molecular target: SCRIB_1, Q14160
Assay: holdup assay
Design: key: below the threshold = too weak to quantify, mostly under pKd 3.1 to 4
Conditions: plain residues with an end cap or a label only (N-terminal biotin on a linker: ado-ado)

Sequence of SCRIB_1, Q14160 (Q14160 718-814): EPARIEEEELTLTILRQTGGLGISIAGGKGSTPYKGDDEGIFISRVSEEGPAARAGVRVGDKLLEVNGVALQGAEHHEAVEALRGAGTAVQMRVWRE

pKd | Binder
3.94 | B1
below the threshold | B2
below the threshold | B3
below the threshold | B4
below the threshold | B5
below the threshold | B6

Molecular target: PARD3_3, Q8TEW0
Assay: holdup assay
Design: key: below the threshold = too weak to quantify, mostly under pKd 3.1 to 4
Conditions: plain residues with an end cap or a label only (N-terminal biotin on a linker: ado-ado)

Sequence of PARD3_3, Q8TEW0 (Q8TEW0 582-685): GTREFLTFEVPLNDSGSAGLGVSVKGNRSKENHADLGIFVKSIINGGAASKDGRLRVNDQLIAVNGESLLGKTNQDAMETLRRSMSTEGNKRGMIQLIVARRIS

pKd | Binder
4.62 | B1
below the threshold | B2
3.75 | B3
below the threshold | B4
below the threshold | B5
4.42 | B6

Molecular target: FRMPD2_3, Q68DX3
Assay: holdup assay
Design: key: below the threshold = too weak to quantify, mostly under pKd 3.1 to 4
Conditions: plain residues with an end cap or a label only (N-terminal biotin on a linker: ado-ado)

Sequence of FRMPD2_3, Q68DX3 (Q68DX3 1073-1166): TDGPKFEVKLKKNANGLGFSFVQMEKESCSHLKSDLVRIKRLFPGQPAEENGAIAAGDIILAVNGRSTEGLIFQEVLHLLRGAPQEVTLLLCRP

pKd | Binder
below the threshold | B1
below the threshold | B2
below the threshold | B3
below the threshold | B4
below the threshold | B5
below the threshold | B6

Molecular target: GRIP2_5, Q9C0E4
Assay: holdup assay
Design: key: below the threshold = too weak to quantify, mostly under pKd 3.1 to 4
Conditions: plain residues with an end cap or a label only (N-terminal biotin on a linker: ado-ado)

Sequence of GRIP2_5, Q9C0E4 (Q9C0E4 544-642): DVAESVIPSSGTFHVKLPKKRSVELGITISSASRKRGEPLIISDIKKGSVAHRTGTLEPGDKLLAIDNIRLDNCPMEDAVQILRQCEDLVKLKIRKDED

pKd | Binder
below the threshold | B1
below the threshold | B2
below the threshold | B3
3.5 | B4
below the threshold | B5
below the threshold | B6

Molecular target: T2, SNTG2, Q9NY99
Assay: holdup assay
Design: key: below the threshold = too weak to quantify, mostly under pKd 3.1 to 4
Conditions: plain residues with an end cap or a label only (N-terminal biotin on a linker: ado-ado)

pKd | Binder
below the threshold | B1
below the threshold | B2
below the threshold | B3
3.83 | B4
4.03 | B5
below the threshold | B6

Molecular target: T3, SNTA1, Q13424
Assay: holdup assay
Design: key: below the threshold = too weak to quantify, mostly under pKd 3.1 to 4
Conditions: plain residues with an end cap or a label only (N-terminal biotin on a linker: ado-ado)

pKd | Binder
below the threshold | B1
below the threshold | B2
below the threshold | B3
3.97 | B4
4.09 | B5
below the threshold | B6

Molecular target: T4, DFNB31_2, Q9P202
Assay: holdup assay
Design: key: below the threshold = too weak to quantify, mostly under pKd 3.1 to 4
Conditions: plain residues with an end cap or a label only (N-terminal biotin on a linker: ado-ado)

pKd | Binder
below the threshold | B1
below the threshold | B2
below the threshold | B3
below the threshold | B4
below the threshold | B5
below the threshold | B6

Molecular target: T5, DVL3, Q92997
Assay: holdup assay
Design: key: below the threshold = too weak to quantify, mostly under pKd 3.1 to 4
Conditions: plain residues with an end cap or a label only (N-terminal biotin on a linker: ado-ado)

pKd | Binder
4.23 | B1
below the threshold | B2
below the threshold | B3
below the threshold | B4
below the threshold | B5
3.67 | B6

Molecular target: PDLIM1, O00151
Assay: holdup assay
Design: key: below the threshold = too weak to quantify, mostly under pKd 3.1 to 4
Conditions: plain residues with an end cap or a label only (N-terminal biotin on a linker: ado-ado)

Sequence of PDLIM1, O00151 (O00151 1-87): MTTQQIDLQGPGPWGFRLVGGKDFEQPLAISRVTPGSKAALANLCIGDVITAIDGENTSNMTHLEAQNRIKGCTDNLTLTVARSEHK

pKd | Binder
below the threshold | B1
below the threshold | B2
below the threshold | B3
below the threshold | B4
below the threshold | B5
below the threshold | B6

Molecular target: T6, NHERF3_1, Q5T2W1
Assay: holdup assay
Design: key: below the threshold = too weak to quantify, mostly under pKd 3.1 to 4
Conditions: plain residues with an end cap or a label only (N-terminal biotin on a linker: ado-ado)

pKd | Binder
3.75 | B1
3.64 | B2
4.16 | B3
3.66 | B4
3.79 | B5
below the threshold | B6

Molecular target: T7, DFNB31_1, Q9P202
Assay: holdup assay
Design: key: below the threshold = too weak to quantify, mostly under pKd 3.1 to 4
Conditions: plain residues with an end cap or a label only (N-terminal biotin on a linker: ado-ado)

pKd | Binder
3.48 | B1
4.46 | B2
below the threshold | B3
3.67 | B4
3.61 | B5
below the threshold | B6

Molecular target: IL16_4, Q14005
Assay: holdup assay
Design: key: below the threshold = too weak to quantify, mostly under pKd 3.1 to 4
Conditions: plain residues with an end cap or a label only (N-terminal biotin on a linker: ado-ado)

Sequence of IL16_4, Q14005 (Q14005 1229-1329): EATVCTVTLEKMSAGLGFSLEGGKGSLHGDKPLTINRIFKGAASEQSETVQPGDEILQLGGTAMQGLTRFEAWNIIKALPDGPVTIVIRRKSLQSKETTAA

pKd | Binder
below the threshold | B1
below the threshold | B2
below the threshold | B3
below the threshold | B4
below the threshold | B5
below the threshold | B6

Molecular target: T8, MPDZ_10, O75970
Assay: holdup assay
Design: key: below the threshold = too weak to quantify, mostly under pKd 3.1 to 4
Conditions: plain residues with an end cap or a label only (N-terminal biotin on a linker: ado-ado)

pKd | Binder
below the threshold | B1
below the threshold | B2
below the threshold | B3
below the threshold | B4
below the threshold | B5
below the threshold | B6

Molecular target: T9, SNTG1, Q9NSN8
Assay: holdup assay
Design: key: below the threshold = too weak to quantify, mostly under pKd 3.1 to 4
Conditions: plain residues with an end cap or a label only (N-terminal biotin on a linker: ado-ado)

pKd | Binder
3.61 | B1
below the threshold | B2
below the threshold | B3
below the threshold | B4
4.06 | B5
below the threshold | B6

Molecular target: IL16_1, Q14005
Assay: holdup assay
Design: key: below the threshold = too weak to quantify, mostly under pKd 3.1 to 4
Conditions: plain residues with an end cap or a label only (N-terminal biotin on a linker: ado-ado)

Sequence of IL16_1, Q14005 (Q14005 210-306): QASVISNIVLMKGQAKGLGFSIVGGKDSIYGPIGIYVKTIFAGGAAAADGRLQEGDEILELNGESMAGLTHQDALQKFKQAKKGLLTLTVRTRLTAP

pKd | Binder
below the threshold | B1
below the threshold | B2
below the threshold | B3
3.84 | B4
below the threshold | B5
below the threshold | B6

Molecular target: DLG5_1, Q8TDM6
Assay: holdup assay
Design: key: below the threshold = too weak to quantify, mostly under pKd 3.1 to 4
Conditions: plain residues with an end cap or a label only (N-terminal biotin on a linker: ado-ado)

Sequence of DLG5_1, Q8TDM6 (Q8TDM6 617-713): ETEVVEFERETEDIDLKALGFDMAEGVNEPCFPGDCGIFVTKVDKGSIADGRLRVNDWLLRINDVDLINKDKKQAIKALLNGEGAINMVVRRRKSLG

pKd | Binder
below the threshold | B1
below the threshold | B2
below the threshold | B3
below the threshold | B4
below the threshold | B5
below the threshold | B6

Molecular target: T10, TIAM2, Q8IVF5
Assay: holdup assay
Design: key: below the threshold = too weak to quantify, mostly under pKd 3.1 to 4
Conditions: plain residues with an end cap or a label only (N-terminal biotin on a linker: ado-ado)

pKd | Binder
4.21 | B1
4.09 | B2
4.14 | B3
below the threshold | B4
below the threshold | B5
4.19 | B6

Molecular target: Inadl_8, Q8NI35
Assay: holdup assay
Design: key: below the threshold = too weak to quantify, mostly under pKd 3.1 to 4
Conditions: plain residues with an end cap or a label only (N-terminal biotin on a linker: ado-ado)

Sequence of Inadl_8, Q8NI35 (Q8NI35 1425-1530): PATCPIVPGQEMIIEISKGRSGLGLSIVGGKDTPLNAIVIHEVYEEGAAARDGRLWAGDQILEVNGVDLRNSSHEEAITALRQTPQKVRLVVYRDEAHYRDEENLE

pKd | Binder
below the threshold | B1
below the threshold | B2
below the threshold | B3
below the threshold | B4
3.59 | B5
below the threshold | B6

Molecular target: T11, LIN7B, Q9HAP6
Assay: holdup assay
Design: key: below the threshold = too weak to quantify, mostly under pKd 3.1 to 4
Conditions: plain residues with an end cap or a label only (N-terminal biotin on a linker: ado-ado)

pKd | Binder
3.74 | B1
3.69 | B2
3.88 | B3
below the threshold | B4
below the threshold | B5
3.63 | B6

Molecular target: T12, DLG3_3, Q92796
Assay: holdup assay
Design: key: below the threshold = too weak to quantify, mostly under pKd 3.1 to 4
Conditions: plain residues with an end cap or a label only (N-terminal biotin on a linker: ado-ado)

pKd | Binder
below the threshold | B1
below the threshold | B2
below the threshold | B3
below the threshold | B4
below the threshold | B5
below the threshold | B6

Molecular target: LIMK2, P53671
Assay: holdup assay
Design: key: below the threshold = too weak to quantify, mostly under pKd 3.1 to 4
Conditions: plain residues with an end cap or a label only (N-terminal biotin on a linker: ado-ado)

Sequence of LIMK2, P53671 (P53671 143-248): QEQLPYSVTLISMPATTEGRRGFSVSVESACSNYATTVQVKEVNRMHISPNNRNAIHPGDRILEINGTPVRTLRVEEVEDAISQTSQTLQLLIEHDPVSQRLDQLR

pKd | Binder
below the threshold | B1
below the threshold | B2
below the threshold | B3
below the threshold | B4
below the threshold | B5
below the threshold | B6

Molecular target: T13, RAPGEF6, Q8TEU7
Assay: holdup assay
Design: key: below the threshold = too weak to quantify, mostly under pKd 3.1 to 4
Conditions: plain residues with an end cap or a label only (N-terminal biotin on a linker: ado-ado)

pKd | Binder
below the threshold | B1
below the threshold | B2
below the threshold | B3
below the threshold | B4
below the threshold | B5
below the threshold | B6

Molecular target: GORASP2, Q9H8Y8
Assay: holdup assay
Design: key: below the threshold = too weak to quantify, mostly under pKd 3.1 to 4
Conditions: plain residues with an end cap or a label only (N-terminal biotin on a linker: ado-ado)

pKd | Binder
5.03 | B1
below the threshold | B2
4.83 | B3
below the threshold | B4
3.49 | B5
5.6 | B6

Source: paper PMC9482650, “Quantitative fragmentomics allow affinity mapping of interactomes” (Nature Communications, 2022)
